Reference: patent US20200200749A1 (VANDERBILT UNIVERSITY, published 2020)

Tests used:
[1] = target: T1, EBOV GP (recombinant, full-length extracellular domain) (EBOV (Ebola Zaire), UniProt Q05320 33-650); assay: ELISA, GP coated on plate, mAb serially diluted
T1 sequence: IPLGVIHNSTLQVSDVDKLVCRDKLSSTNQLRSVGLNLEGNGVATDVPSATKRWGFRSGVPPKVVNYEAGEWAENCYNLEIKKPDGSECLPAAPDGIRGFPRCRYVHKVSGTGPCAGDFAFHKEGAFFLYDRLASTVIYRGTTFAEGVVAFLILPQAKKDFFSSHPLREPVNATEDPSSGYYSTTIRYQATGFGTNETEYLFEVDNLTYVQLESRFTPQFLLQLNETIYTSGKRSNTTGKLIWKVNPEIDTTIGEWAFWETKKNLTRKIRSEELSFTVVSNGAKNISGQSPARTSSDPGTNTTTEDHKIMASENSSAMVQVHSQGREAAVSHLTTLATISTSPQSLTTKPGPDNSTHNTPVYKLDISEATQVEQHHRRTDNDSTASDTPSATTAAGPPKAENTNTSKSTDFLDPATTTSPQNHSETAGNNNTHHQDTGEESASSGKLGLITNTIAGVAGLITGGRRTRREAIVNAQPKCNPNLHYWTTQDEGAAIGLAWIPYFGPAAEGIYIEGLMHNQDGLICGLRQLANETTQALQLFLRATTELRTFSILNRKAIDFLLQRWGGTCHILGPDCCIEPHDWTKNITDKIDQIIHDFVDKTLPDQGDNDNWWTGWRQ

[2] = target: T2, EBOV sGP (EBOV (Ebola Zaire), UniProt P60170 33-324); assay: ELISA, sGP coated on plate, mAb serially diluted
T2 sequence: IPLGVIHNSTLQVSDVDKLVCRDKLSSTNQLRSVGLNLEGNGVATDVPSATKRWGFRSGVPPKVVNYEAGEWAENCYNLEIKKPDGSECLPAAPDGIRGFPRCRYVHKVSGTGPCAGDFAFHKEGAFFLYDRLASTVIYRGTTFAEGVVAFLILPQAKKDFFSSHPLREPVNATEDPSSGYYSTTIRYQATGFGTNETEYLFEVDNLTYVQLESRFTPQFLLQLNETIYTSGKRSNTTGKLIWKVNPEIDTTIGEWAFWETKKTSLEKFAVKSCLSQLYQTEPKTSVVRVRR

[3] = target: T3, SUDV GP (recombinant) (SUDV (Sudan ebolavirus), UniProt Q66814 33-650); assay: ELISA, GP coated on plate, mAb serially diluted
T3 sequence: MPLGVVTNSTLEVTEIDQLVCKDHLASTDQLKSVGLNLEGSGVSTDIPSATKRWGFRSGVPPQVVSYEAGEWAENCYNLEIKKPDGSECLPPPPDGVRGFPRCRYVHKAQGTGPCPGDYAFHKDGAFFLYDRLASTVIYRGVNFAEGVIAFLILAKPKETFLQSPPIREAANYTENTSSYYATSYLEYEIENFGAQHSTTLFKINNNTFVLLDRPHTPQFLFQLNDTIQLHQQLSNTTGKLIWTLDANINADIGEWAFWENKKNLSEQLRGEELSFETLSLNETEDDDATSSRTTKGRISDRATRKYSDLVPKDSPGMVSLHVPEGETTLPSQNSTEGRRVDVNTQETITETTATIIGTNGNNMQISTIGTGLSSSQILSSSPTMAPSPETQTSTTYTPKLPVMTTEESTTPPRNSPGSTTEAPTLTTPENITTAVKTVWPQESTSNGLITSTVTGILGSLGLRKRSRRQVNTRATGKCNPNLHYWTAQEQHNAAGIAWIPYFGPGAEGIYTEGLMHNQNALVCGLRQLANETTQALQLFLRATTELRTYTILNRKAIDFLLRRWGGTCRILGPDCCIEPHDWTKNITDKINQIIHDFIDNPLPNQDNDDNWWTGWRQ

B1: EBOV62 (antibody, V domains shown)
VH: EVQLVESGGGLVQPGGSLRLSCAASGFTFSSYWMSWVRQAPGKGLEWVANIKQDGSAKYYVDSVKGRFTISRDNAKNSLYLQMNSLRAEDTAVYYCARDGLLGISDLLYPIYYFDYWGQGTLVTVSS
VL: DIVMTQSPSSLSASVGDRVTITCRASQNIGSYLNWYQQKPGKAPNLLMYAASSLQSGVPSRFSGSGSGTDFTLTITSLQPEDFATYYCQQSYSIPRTFGQGTQLEIK
- EC50 [1]: 228 µg/mL
- EC50 [2]: 51 µg/mL

B2: EBOV63 (antibody, V domains shown)
VH: EVQLVESGGGLVKPGGSLRLSCAASGFTLNFYNMNWVRQAPGKGLEWVSSISSSSNYIYYADSVKGRFTISRDNARKSLYLQMNSLRAEDTAVYYCARDFVQLLIPQRDEWQGVHDYYGMDVWGQGTLVTVSS
VL: EIVLTQSPGTLSLSPGGRATLSCRASQSVSNSYLAWYQQKPGQAPRLLIYGASSRATGIPDRFSGSGSGTDFILTISRLEPEDFAVYYCQHYGSSQLTFGGGTKVEIK
- EC50 [1]: 283 µg/mL
- EC50 [2]: 38 µg/mL

B3: EBOV87 (antibody, V domains shown)
VH: QVQLVQSGAEVKRPGASVKVSCKASGYTFTSYAISWVRQAPGQGLEWMGWISGNNGNTNYAQKLQGRLTMTTDTSTSTAYMELRSLRSDDTAVYYCARDADIVVVVGATGTYYYGMDVWGQGTLVTVSS
VL: DIVMTQSPSTLSASVGDRVTITCRASQSISSWLAWYQQKPGKAPKLLIYDASSLESGVPSRFSGSGSGTEFTLTISSLQPDDFATYYCQQYKSSLRTFGQGTQLEIK
- EC50 [1]: 724 µg/mL
- EC50 [3]: 629 µg/mL
- EC50 [2]: 51 µg/mL

B4: EBOV49 (antibody, V domains shown)
VH: EVQLVESGGGLVQPGGSLRLSCAASGFTFSSYEINWVRQAPGRGLEWVSYISSSGRTIYYADSVKGRFTISRDNAKNSLYLQMNSLRAEDTAVYYCAREPYVDGILYGAGDSYFDYWGQGTLVTVSS
VL: DIQMTQSPSSLSASVGDRVTITCRASQSISNYLNWYQQKPGKAPKVLIYAASSLQSGVSSRFSGSGSGTDFTLTISSLQPEDFATYFCQQSYNTPPVTFGQGTRLEIK
- EC50 [1]: 262 µg/mL
- EC50 [2]: 61 µg/mL

B5: EBOV52 (antibody, V domains shown)
VH: QVQLQESGPGLVKPSETLSLNCTVSGGSISSYYWSWIRQPPGKGLEWIGYIYDSGRTKYNPSLKSRVTISLDTSKNQFSLKLSSVTAADTAVYYCASLGPFDKLWFGELLPGWFDPWGQGTLVTVSS
VL: EIVLTQSPATLSLSPGGRATLSCRASQSVHNYLAWYQQKSGQAPRLLIYDASNRATGIPARFSGSGSGTDFTLTISSLEPDDFAVYYCQHRSNWLTFGGGTKVEIK
- EC50 [1]: 712 µg/mL
- EC50 [2]: 82 µg/mL
